Test results reported in article PMC8694623 (Science Advances, 2021).

B1: S. cerevisiae Atm1-Strep (ABC transporter of mitochondria 1), wild type (natural protein, UniProt P40416 92-690, looked up)
chain: LKDLFRYIWPKGNNKVRIRVLIALGLLISAKILNVQVPFFFKQTIDSMNIAWDDPTVALPAAIGLTILCYGVARFGSVLFGELRNAVFAKVAQNAIRTVSLQTFQHLMKLDLGWHLSRQTGGLTRAMDRGTKGISQVLTAMVFHIIPISFEISVVCGILTYQFGASFAAITFSTMLLYSIFTIKTTAWRTHFRRDANKADNKAASVALDSLINFEAVKYFNNEKYLADKYNGSLMNYRDSQIKVSQSLAFLNSGQNLIFTTALTAMMYMGCTGVIGGNLTVGDLVLINQLVFQLSVPLNFLGSVYRDLKQSLIDMETLFKLRKNEVKIKNAERPLMLPENVPYDITFENVTFGYHPDRKILKNASFTIPAGWKTAIVGSSGSGKSTILKLVFRFYDPESGRILINGRDIKEYDIDALRKVIGVVPQDTPLFNDTIWENVKFGRIDATDEEVITVVEKAQLAPLIKKLPQGFDTIVGERGLMISGGEKQRLAIARVLLKNARIMFFDEATSALDTHTEQALLRTIRDNFTSGSRTSVYIAHRLRTIADADKIIVLDNGRVREEGKHLELLAMPGSLYRELWTIQEDLDHLENELKDQQEL
B2: Atm1-L657 truncation mutant (residues 92 to 656), C-terminally Strep-tagged (domain or fragment, S. cerevisiae, UniProt P40416 92-656, looked up)
chain: LKDLFRYIWPKGNNKVRIRVLIALGLLISAKILNVQVPFFFKQTIDSMNIAWDDPTVALPAAIGLTILCYGVARFGSVLFGELRNAVFAKVAQNAIRTVSLQTFQHLMKLDLGWHLSRQTGGLTRAMDRGTKGISQVLTAMVFHIIPISFEISVVCGILTYQFGASFAAITFSTMLLYSIFTIKTTAWRTHFRRDANKADNKAASVALDSLINFEAVKYFNNEKYLADKYNGSLMNYRDSQIKVSQSLAFLNSGQNLIFTTALTAMMYMGCTGVIGGNLTVGDLVLINQLVFQLSVPLNFLGSVYRDLKQSLIDMETLFKLRKNEVKIKNAERPLMLPENVPYDITFENVTFGYHPDRKILKNASFTIPAGWKTAIVGSSGSGKSTILKLVFRFYDPESGRILINGRDIKEYDIDALRKVIGVVPQDTPLFNDTIWENVKFGRIDATDEEVITVVEKAQLAPLIKKLPQGFDTIVGERGLMISGGEKQRLAIARVLLKNARIMFFDEATSALDTHTEQALLRTIRDNFTSGSRTSVYIAHRLRTIADADKIIVLDNGRVREEGKH

Experiments:
cryo-EM structure = biological target: the molecule itself; test: cryo-EM structure
negative-stain EM = biological target: the molecule itself; test: negative-stain EM

Protein	binding result (cryo-EM structure)	binding result (negative-stain EM)
B1	binds	
B2		binds
